Assay results: patent US20180112000A1 (MILTENYI BIOTEC, published 2018)
Positions count from the first letter of the chain named.

B1: chCD28 Fab (chimeric) (Fab, V domains shown)
VH: QVQLKESGPGLVAPSQSLSITCTVSGFSLTSYGVHWVRQPPGKGLEWLGVIWAGGSTNYNSALMSRLSISKDNSKSQVFLKMNSLQTDDTAMYYCARDKRAPGKLYYGYPDYWGQGTTLTVSS
VL: DIVLTQSPASLAVSLGQRATISCRASESVEYYVTSLMQWYQQKPGQPPKLLIYAASNVESGVPARFSGSGSGTDFSLNIHPVEEDDIAMYFCQQTRKVPSTFGGGTKLEIKR
notes: Fab expressed in E. coli periplasm; not shown: Fabs were purified by IMAC
B2: huCD28_v4 Fab (humanized) (Fab, V domains shown, not shown: small tags and cut ends)
VH: QVQLQESGPGLVKPSETLSLTCTVSGFSLTSYGVHWIRQPPGKGLEWLGVIWAGGSTNYNSSLKSRVTISKDTSKNQVSLKLSSVTAADTAVYYCARDKRAPGKLYYGYPDYWGQGTTLTVSS
VL: DIVMTQSPDSLAVSLGERATINCRASESVEYYVTSLMQWYQQKPGQPPKLLIYAASNVESGVPARFSGSGSGTDFTLTISPLQAEDVAVYYCQQTRKVPSTFGGGTKLEIKR
notes: Humanized 15E8 Fab expressed in E. coli periplasm
B3: huCD28_v3 Fab (humanized) (Fab, V domains shown, not shown: small tags and cut ends)
VH: B2 VH with S79F, A88D
VL: B2 VL
notes: as for B2
B4: huCD28_v1 Fab (humanized) (Fab, V domains shown, not shown: small tags and cut ends)
VH: B2 VH with I37V, S62A, K64M, V67L
VL: B2 VL with A64D, P81S
notes: as for B2
B5: huCD28_v2 Fab (humanized) (Fab, V domains shown, not shown: small tags and cut ends)
VH: B2 VH with I37V, L48I, S61P, V78F
VL: B2 VL with R24K, A25S, M37L, V58R, A64D, P81S
notes: as for B2

What follows are binders tested against T1, recombinant CD28 antigen (extracellular domain, expressed in mammalian cells) (UniProt P10747 19-152, limits assumed) (assay: SPR (Biacore), CD28 ECD on CM5 chip, Fab as analyte at 50 ug/mL, 1:1 binding mass transfer model).
T1 construct: extracellular domain; Immobilized on a CM5 chip by amine coupling; also called T-cell-specific surface glycoprotein CD28
Method: (§1) Therefore, recombinant CD28 antigen (extracellular domain, expressed in mammalian cells) was immobilized on a CM5 chip by standard amine coupling. The Fab variants were used as analytes in HBS-EP buffer (0.01 M HEPES pH 7.4, 0.15 M NaCl, 3 mM EDTA, 0.005% v/v Surfactant P20) in a concentration of 50 μg/mL. Evaluation was conducted with the BIAeval Software using an 1:1 binding mass transfer model.

Binder	Kd	koff	kon
B1	32 nM	0.032 s⁻¹	1e+06 M⁻¹ s⁻¹
B2	53 nM	0.021 s⁻¹	400000 M⁻¹ s⁻¹
B3	52 nM	0.026 s⁻¹	500000 M⁻¹ s⁻¹
B4	42 nM	0.08 s⁻¹	1.9e+06 M⁻¹ s⁻¹
B5	92 nM	0.055 s⁻¹	600000 M⁻¹ s⁻¹

The binders below were run against T1, recombinant CD28 antigen (extracellular …) (assay: SPR (Biacore), CD28 ECD on CM5 chip, Fab as analyte).
Method: as §1

Binder	affinity [%] (by KD, chCD28 Fab set to 100%)
B1	100%
B2	60%
B3	62%
B4	76%
B5	35%
